The values that follow come from US10660972B2, “Methods for coupling targeting peptides onto recombinant lysosomal enzymes for improved treatments of lysosomal storage diseases” (AMICUS THERAPEUTICS, INC., priority 2011, dated 2020).

Values joined by “and” are separate entries in the source; they are usually repeats but may differ in a detail not shown here. Equal entries are not always repeated.

One data set concerns the target IGF-2/CI-MPR (Homo sapiens, UniProt P11717). The note with it: cited from earlier work; for Kd: ligand affinity for IGF-2/CI-MPR, read-out: Binding Affinity (Apparent Kd; nM).
The subject of the next data set is Pompe disease. As to conditions: 40 mg/kg every other week; cited from earlier work.
For the next data set, the target named is insulin receptor (Homo sapiens, UniProt P06213). The note with it: compared to the IGF-2/CI-MPR; cited from earlier work.
The target in the next data set is IGF-1 receptor (Homo sapiens, UniProt P08069). The note with it: compared to the IGF-2/CI-MPR; cited from earlier work.
For data set [1] the following is noted: human, in vivo; cited from earlier work.
Data set [2] has as its system serum IGF binding proteins (IGFBPs). The experiment in a line: Binding to serum IGF binding proteins, inferred from uptake in serum-containing medium. Format: cell-based. The note with it: inferred from internalization in medium with 10% FBS. How it is done: To assess the functional effects of IGF2 peptide for the cellular uptake of exogenous lysosomal enzymes, the internalization of IGF2-conjugated rbGAA (vIGF2-rhGAA) was evaluated in L6 rat skeletal muscle myoblasts. Briefly, L6 myoblasts were expanded in T-75 flasks to confluence in DMEM medium containing 10% fetal bovine serum (FBS) at 37 C and a 5% CO2 environment. The cells were harvested via trypsin/EDTA and plated in 6-well tissue culture plates at a cell density of 3×10^5 cells per well and incubated in DMEM/10% […] medium. Two hours prior to the addition of lysosomal enzymes, the spent DMEM 10% FBS medium was replaced with 2.5 ml uptake medium (Ham's F-12/10% FBS/2 mM PIPES, pH 6.7). Unconjugated rhGAA and vIGF2-rhGAA were diluted to 0.5 mg/ml with 50 mM sodium phosphate, pH 6.5/100 mM NaCl/0.05%>Polysorbate-80 and sterilized through a 0.2 μm filter spin device (Costar). Unconjugated rhGAA was added to individual wells at final protein concentrations of 10-200 nM while vIGF2-rhGAA was added at 2-25 nM. To ensure that all wells had the same volume and correct protein concentration, 50 mM sodium phosphate, pH 6.5/100 mM NaCl/0.05% Polysorbate-80 buffer was added so that the total volume of enzyme and buffer was 0.2 ml for each sample.

Data set [3] can be described thus: Solubility and stability of protein preparations in acidic buffer. Format: physicochemical. An excerpt:
(§1) The high-mannose type N-glycans on rhGAA is problematic because it is believed that these carbohydrates cause the protein to be rapidly cleared from the circulation via macrophage and splenic mannose receptors. […] Deglycosylation of rhGAA can be performed after the enzyme is modified with S-Hynic and purified (via size exclusion chromatography or dialysis to remove excess crosslinker). This strategy allows for complete deglycosylation of rhGAA over 1-5 days using EndoF or EndoH without affecting enzyme activity. The deglycosylated hydrazide-modified rhGAA is then conjugated to PEG4-benzaldehyde-modified IGF-2 peptides. Alternatively, rhGAA deglycosylation can be performed concurrently during the conjugation of PEG4-benzaldehyde-modified IGF-2 peptide to hydrazide-modified rhGAA using high concentrations of EndoF or EndoH. Deglycosylated, IGF2 peptide-conjugated rhGAA is then purified by gel filtration chromatography or dialysis to remove excess […] IGF-2 peptides and stored in acidic pH buffer (50 mM sodium phosphate, pH 6.2/100 mM NaCl/0.05% Polysorbate-80). The ideal method to remove high-mannose N-glycans from yeast-derived rhGAA would be to co-express EndoH with the lysosomal enzyme for deglycoylation in vivo prior to protein purification of rhGAA. […]

The subject of data set [4] is lysosomal enzyme activity (rhGAA, I2S). The experiment in a line: Enzyme activity of lysosomal enzyme after conjugation or deglycosylation. Format: biochemical, human.
From the text: as §1, with “Polysorbate-80).” for “Polysorbate-80). The ideal method to remove high-mannose N-glycans from yeast-derived rhGAA would be to co-express EndoH with the lysosomal enzyme for deglycoylation in vivo prior to protein purification of rhGAA.”
To assess the functional effects of IGF2 peptide for the cellular uptake of exogenous lysosomal enzymes, the internalization of IGF2-conjugated rbGAA (vIGF2-rhGAA) was evaluated in L6 rat skeletal muscle myoblasts. […]

Sequence of IGF-2/CI-MPR (P11717 41-2491): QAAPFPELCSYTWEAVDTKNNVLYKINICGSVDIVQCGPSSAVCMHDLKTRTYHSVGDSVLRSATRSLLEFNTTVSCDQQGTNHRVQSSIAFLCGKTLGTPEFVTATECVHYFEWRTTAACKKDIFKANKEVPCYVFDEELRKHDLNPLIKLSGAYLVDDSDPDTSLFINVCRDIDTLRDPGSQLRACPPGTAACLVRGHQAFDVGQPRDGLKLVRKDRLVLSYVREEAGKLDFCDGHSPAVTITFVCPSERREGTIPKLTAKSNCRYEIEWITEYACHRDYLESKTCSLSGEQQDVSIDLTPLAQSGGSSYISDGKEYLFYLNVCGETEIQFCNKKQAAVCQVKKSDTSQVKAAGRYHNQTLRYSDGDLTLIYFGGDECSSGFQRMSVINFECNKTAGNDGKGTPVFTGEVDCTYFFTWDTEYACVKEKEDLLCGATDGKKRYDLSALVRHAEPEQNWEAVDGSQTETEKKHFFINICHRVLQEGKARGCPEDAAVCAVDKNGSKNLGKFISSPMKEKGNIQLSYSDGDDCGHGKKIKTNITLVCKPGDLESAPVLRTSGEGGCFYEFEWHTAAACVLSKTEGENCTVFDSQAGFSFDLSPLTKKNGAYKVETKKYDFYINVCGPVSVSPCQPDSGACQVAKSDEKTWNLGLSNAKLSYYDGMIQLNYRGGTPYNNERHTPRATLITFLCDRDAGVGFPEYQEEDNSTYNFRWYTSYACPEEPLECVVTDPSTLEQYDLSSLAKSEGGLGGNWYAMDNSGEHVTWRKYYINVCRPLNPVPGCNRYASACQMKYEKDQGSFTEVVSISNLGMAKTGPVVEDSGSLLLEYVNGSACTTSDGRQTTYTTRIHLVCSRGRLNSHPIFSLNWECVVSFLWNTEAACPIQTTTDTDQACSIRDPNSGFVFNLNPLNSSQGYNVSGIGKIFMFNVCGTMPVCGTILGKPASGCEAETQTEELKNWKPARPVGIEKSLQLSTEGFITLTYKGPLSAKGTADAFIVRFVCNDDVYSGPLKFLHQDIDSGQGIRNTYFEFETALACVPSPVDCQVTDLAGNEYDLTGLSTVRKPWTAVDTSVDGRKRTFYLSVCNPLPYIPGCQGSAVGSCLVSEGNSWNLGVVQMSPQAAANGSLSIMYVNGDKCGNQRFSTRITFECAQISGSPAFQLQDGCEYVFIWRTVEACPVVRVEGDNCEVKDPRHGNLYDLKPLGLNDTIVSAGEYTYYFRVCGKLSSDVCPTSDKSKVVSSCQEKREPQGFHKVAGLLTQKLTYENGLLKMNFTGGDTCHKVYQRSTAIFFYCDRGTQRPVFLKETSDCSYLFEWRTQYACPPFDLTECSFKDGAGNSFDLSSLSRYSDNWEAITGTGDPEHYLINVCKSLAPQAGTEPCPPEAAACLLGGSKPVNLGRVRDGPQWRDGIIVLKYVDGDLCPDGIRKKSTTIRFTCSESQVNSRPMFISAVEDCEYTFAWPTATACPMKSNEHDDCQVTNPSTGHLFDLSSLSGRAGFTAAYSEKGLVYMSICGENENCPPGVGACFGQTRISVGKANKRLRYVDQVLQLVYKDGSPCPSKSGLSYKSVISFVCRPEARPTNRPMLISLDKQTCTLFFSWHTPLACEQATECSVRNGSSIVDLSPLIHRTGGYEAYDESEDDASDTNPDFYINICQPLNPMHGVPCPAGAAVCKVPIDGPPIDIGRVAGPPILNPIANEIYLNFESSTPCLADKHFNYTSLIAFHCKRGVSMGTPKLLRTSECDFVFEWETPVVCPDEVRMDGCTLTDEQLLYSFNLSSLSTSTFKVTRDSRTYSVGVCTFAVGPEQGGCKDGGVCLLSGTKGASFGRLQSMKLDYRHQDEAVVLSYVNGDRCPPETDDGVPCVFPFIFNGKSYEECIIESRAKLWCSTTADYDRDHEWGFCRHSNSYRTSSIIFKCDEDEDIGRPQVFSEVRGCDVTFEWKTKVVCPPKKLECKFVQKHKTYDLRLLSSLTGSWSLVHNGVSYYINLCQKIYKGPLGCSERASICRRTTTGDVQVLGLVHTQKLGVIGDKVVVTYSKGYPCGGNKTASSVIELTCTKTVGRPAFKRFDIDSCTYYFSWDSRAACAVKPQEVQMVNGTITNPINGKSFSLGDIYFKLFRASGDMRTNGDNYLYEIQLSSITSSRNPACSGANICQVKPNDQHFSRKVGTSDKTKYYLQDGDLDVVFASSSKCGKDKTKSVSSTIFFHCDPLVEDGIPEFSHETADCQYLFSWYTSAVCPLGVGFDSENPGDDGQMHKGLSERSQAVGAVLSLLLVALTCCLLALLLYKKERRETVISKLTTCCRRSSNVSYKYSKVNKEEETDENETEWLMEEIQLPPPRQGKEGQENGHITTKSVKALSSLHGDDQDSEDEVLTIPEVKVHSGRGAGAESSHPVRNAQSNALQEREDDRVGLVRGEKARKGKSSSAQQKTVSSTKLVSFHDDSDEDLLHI

`O=C[C@@H](O)[C@@H](O)[C@H](O)[C@H](O)COP(=O)(O)O` [free M6P, mannose 6-phosphate]: at IGF-2/CI-MPR, the Kd is 7000 nM.
As for “Myozyme: recombinant human acid α-glucosidase, rhGAA; Genzyme Corp.”, the “clinical effectiveness in Pompe disease” value with Pompe disease is on record as “only moderately effective”.
In the case of “WT hIGF-2: wildtype human insulin-like growth factor 2 peptide”, the Kd in the data set with IGF-2/CI-MPR was 0.03 to 0.2 nM. Further, the “fold higher affinity for IGF-2/CI-MPR than mono-M6P N-glycan” value with IGF-2/CI-MPR (relative to mono-M6P N-glycan) is recorded as “approximately 230,000 fold”. Also, in the data set with insulin receptor, the “fold lower affinity for insulin receptor compared to IGF-2/CI-MPR” value is approximately 100 fold. For the same compound, in the data set with IGF-1 receptor, the “fold lower affinity for IGF-1 receptor compared to IGF-2/CI-MPR” value was approximately 230 fold. The “safety in clinical trials” value in data set [1] is “shown to be safe”.
In the case of “[Leu27] hIGF-2: human IGF-2 with substitution of leucine for tyrosine at position 27”, the Kd with IGF-2/CI-MPR is 0.05 nM and 0.06 nM.
On to “[del(1-4), Arg6, Leu27, Arg65] IGF-2 [variant IGF2 peptide]”, for which the “binding affinity to serum IGF binding proteins (IGFBPs)” value in data set [2] is on record as “low binding affinity”. Also, the “stability of conjugated peptide in acidic buffers” value in data set [3] (acidic buffers required for maintaining lysosomal enzyme activities) is “stable and maintains proper protein structure”.
For the compound “rhGAA: Recombinant human acid α-glucosidase”, the “effect of chemical conjugation of variant IGF2 peptide on enzyme activity” value in data set [4] (after conjugation of variant IGF2 peptide (data not shown)) was “did not affect enzyme activity”. Besides, the “enzyme activity after removal of N-glycans” value in data set [4] (deglycosylated with EndoF or EndoH, native conditions (data not shown)) is recorded as “completely active”. The “solubility after removal of N-glycans” value in data set [3] (deglycosylated with EndoF or EndoH (data not shown)) is recorded as “remain soluble”.
